Measurements from publication PMC4654411.

Target: Full-length HA-tagged PTPN12 (human) (UniProt Q05209)
Experiment: co-IP; Hek293 cells co-transfected with HA-PTPN12 and GFP-tagged FlnAs; 500 µg lysate in NETF buffer, 6 µg anti-HA 2 h at 4 °C, protein A beads; immunoblot

Chain of UniProt Q05209 (Q05209 whole entry): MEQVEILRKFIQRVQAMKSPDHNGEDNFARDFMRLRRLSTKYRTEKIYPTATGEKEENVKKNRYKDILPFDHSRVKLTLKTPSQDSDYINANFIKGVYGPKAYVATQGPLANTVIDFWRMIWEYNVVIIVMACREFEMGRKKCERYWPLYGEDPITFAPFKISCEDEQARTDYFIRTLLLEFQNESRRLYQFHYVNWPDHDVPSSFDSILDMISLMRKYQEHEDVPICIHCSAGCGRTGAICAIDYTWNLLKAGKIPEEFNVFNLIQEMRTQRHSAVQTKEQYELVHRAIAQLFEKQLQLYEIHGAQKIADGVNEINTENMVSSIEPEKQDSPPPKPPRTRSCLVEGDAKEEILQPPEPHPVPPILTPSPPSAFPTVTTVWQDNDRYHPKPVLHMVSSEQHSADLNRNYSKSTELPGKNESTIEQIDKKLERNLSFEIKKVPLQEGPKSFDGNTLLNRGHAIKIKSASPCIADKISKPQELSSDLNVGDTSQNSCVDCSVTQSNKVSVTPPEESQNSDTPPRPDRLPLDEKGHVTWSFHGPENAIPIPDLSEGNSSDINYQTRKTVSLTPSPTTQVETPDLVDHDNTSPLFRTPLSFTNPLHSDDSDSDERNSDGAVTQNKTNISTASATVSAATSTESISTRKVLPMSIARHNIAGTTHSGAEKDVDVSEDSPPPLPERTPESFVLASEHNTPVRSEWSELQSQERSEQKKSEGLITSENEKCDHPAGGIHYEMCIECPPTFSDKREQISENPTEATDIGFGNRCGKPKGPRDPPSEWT

Substance | reduction of the FlnA co-immunoprecipitated with respect to FlnA-WT [%]
GFP-tagged-FlnA-G288R, P21333 1-2647 | > 60
GFP-tagged-FlnA-P637Q, P21333 1-2647 | > 60
